According to article PMC2860604:

B1: TRE duplex (dsDNA)
DNA 1: CGCGTGACTCACCCC
DNA 2: GGGGTGAGTCACGCG

How the values were obtained:
[1] = molecular target: Wildtype (WT) construct of bZIP domain of human Jun (human); test: SEC-MALS
[2] = molecular target: Jun bZIP domain WT (human, UniProt P05412 252-315); test: ITC
[3] = molecular target: T1, Jun bZIP ΔL543 (human, UniProt P05412 251-293); test: ITC
T1 chain: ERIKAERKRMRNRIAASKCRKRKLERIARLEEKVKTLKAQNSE

[4] = molecular target: T2, Jun bZIP ΔL54 (human, UniProt P05412 251-300); test: ITC
T2 chain: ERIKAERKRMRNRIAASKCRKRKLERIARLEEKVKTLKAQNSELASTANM

[5] = molecular target: Jun bZIP ΔL5 (human, UniProt P05412 251-307); test: ITC
[6] = molecular target: T3, Jun bZIP ΔL5432 (human, UniProt P05412 251-286); test: ITC
T3 chain: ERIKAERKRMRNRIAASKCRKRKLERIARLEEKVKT

[7] = molecular target: T4, Jun bZIP ΔL54321 (human, UniProt P05412 251-279); test: ITC
T4 chain: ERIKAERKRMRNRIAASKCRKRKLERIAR

Sequence of Jun bZIP domain WT (P05412 252-315): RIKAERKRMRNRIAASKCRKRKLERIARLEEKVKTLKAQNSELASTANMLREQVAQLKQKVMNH

Molecule | stoichiometry N [1] | Kd [2] [µM] | Kd [3] [µM] | Kd [4] [µM] | Kd [5] [µM] | binding result [6] | binding result [7]
Wildtype (WT) construct of bZIP domain of human Jun (domain or fragment) | 2 |  |  |  |  |  | 
B1 |  | 0.25 ± 0.01 | 14.8 ± 1.67 | 6.14 ± 0.27 | 1.26 ± 0.21 | no binding | no binding
